The text below walks through data of patent US20130266566A1.

Test [1] concerns the target Antibody 16 IgG1, not germlined. In words: competition binding assay: Antibody 16 IgG adsorbed to the plate, biotinylated active human PAI-1 plus a titration of the unlabelled competitor, streptavidin-Europium detection.
Test [2] concerns the target active human PAI-1, recombinant, wild-type, non-glycosylated (E. coli) (human) (UniProt P05121). In words: cell-based or functional assay.
The target in another test is T1, rat PAI-1 (rat) (UniProt P20961).
T1 sequence: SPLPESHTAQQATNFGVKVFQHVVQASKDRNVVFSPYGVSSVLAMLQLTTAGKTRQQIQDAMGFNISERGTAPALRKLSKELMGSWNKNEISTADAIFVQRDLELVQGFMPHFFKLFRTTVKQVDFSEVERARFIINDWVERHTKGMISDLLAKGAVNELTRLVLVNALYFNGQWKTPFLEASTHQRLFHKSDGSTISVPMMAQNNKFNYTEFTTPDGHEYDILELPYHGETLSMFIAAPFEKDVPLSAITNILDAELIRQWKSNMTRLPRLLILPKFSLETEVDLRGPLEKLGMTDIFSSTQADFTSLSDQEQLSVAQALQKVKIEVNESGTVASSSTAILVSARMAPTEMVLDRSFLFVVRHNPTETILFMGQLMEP
The test can be described thus: cell-based or functional assay.

active human PAI-1, recombinant, wild-type, non-glycosylated (E. coli) (human), sequence (P05121 24-402): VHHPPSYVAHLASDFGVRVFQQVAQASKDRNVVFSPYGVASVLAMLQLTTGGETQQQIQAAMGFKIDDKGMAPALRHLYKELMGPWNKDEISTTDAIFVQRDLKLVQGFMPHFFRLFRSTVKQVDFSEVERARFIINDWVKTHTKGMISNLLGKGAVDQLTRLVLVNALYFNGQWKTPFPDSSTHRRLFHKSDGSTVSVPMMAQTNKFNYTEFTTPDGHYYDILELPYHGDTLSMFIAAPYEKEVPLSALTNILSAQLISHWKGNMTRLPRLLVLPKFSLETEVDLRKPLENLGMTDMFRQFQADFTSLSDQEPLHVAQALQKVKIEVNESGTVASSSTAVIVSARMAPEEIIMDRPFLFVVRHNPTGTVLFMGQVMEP

B1: mouse PAI-1 (protein)
chain: ALPLRESHTAHQATDFGVKVFQQVVQASKDRNVVFSPYGVSSVLAMLQMTTAGKTRRQIQDAMGFKVNEKGTAHALRQLSKELMGPWNKNEISTADAIFVQRDLELVQGFMPHFFKLFQTMVKQVDFSEVERARFIINDWVERHTKGMINDLLAKGAVDELTRLVLVNALYFSGQWKTPFLEASTHQRLFHKSDGSTVSVPMMAQSNKFNYTEFTTPDGLEYDVVELPYQGDTLSMFIAAPFEKDVHLSALTNILDAELIRQWKGNMTRLPRLLILPKFSLETEVDLRGPLEKLGMPDMFSATLADFTSLSDQEQLSVAQALQKVRIEVNESGTVASSSTAFVISARMAPTEMVIDRSFLFVVRHNPTETILFMGQVMES
For B1, the IC50 (read off the curve) in test [1] was 6 nM.

B2: Antibody 18 scFv (scFv, V domains shown, part only)
VH: QVQLQQSGAEVKKPGSSVKVSCKASGGTFSSYAISWVRQAPGQGLEWMGGIIPTFGTANYAQKLQGRVTITADESTSTAYMELSGLRSEDTAVYYCAREKRQWLEGHFDYWGRGTPVTVSS
VL: DIQMTQSPSFLSASIGDRVTITCRASEGIYHALAWYQQKPGKAPKLLIYRASSLASGAPSRFSGSGSGTDFTLTISSLQPDDFATYYCQQYSNYPLTFGGGTKLEIK
modifications: linker not stated
With B2, in test [2], the Chromogenic (IC50 in nM) human turned out to be 1.3 nM. In addition, in the test with rat PAI-1 (rat), the Chromogenic (IC50 in nM) rat amounted to 238 nM; the Chromogenic IC50 ratio rat/human came to 190 fold; the HT-1080 Exo PAI-1 (IC50 in nM) rat amounted to 37 nM; the IC50 in the rat chromogenic assay, fold higher than in the human assay worked out at 180 fold.
